One substance from PMC10191332 can be followed below.

The target of this experiment is recombinant His-gH/gL (HCMV), purified (HCMV) (UniProt P12824). Description: BLI.

One may read the Kd as the free concentration of one partner at which half of the binding sites on the other are occupied at equilibrium, for simple one-to-one binding. “EphA2 extracellular domain (27-534), purified (from UniProt P29317 27-534) (domain or fragment)”: the Kd was 36.4 nM.
